Data from the nanobody polyreactivity screen of Harvey et al. (2022).

Assay: yeast display, Sf9 membrane polyspecificity reagent, FACS + sequencing; frameworks hold sequencing errors
How it was run: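 Nanobodies from a synthetic yeast display library (Saccharomyces cerevisiae BJ5465), induced 36–48 hours with galactose, were stained 1 hour at 4 °C with 10% biotinylated, detergent-solubilized Sf9 membrane reagent, enriched on streptavidin microbeads, then FACS-sorted. Anti-HA (expression) and streptavidin (reagent binding) fluorescence set low and high (top ~1%) gates. Polyreactivity labels come from the gate of origin. Genes were colony-PCR amplified, MiSeq 2 × 250 sequenced and filtered by CDR length.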
With “QVQLQESGGGLVQAGGSLRMSCAASGKIFDADIMGWYRQAPGKERELVASNTDGRRTNYADSVKGRYTISRDSEKNTVYLQMNSLKAEDTAEYYCAAIAYPVVPTSFDYDSDYFHWGQGTQVTVSS” the “polyreactivity (PSR sort gate)” value was “high polyreactivity”. For “QVQLQESGGGLVQAGGSLRMSCAASGNIFDADIMGWYRQAPGKERELVASITDGRRTNYADSVKGRYTISRDSEKNTVYLQMNSLKPEDTAVYYCAAIAYPVVPTYFDYDSDYFHWGQGTQVTVSS”, the “polyreactivity (PSR sort gate)” value was “high polyreactivity”. In the case of “QVQLQESGGGLVQAGGSLRMSCAASGSIFSEANIGWYRQAPGKERELVATIGQGSTTNYADSVKGRFTISRDNAKNNVDLQLTSRKPEETAVYYCAVDTVDPVGFVYWGQGTQVTVRS”, the “polyreactivity (PSR sort gate)” value is reported as “low polyreactivity”. In the case of “QVQLQESGGGLVQAGGSLRQSCAASGNIFLGDTMGWYRPAPGKEREFVAGIARGGNPYYADSVKGRFTISRNNAKNTVYLQKNSLKPEDTAVHYCAVQRSHASDYNYWGQGTQVTVSS”, the “polyreactivity (PSR sort gate)” value is reported as “low polyreactivity”. In the case of “QVQLQESGGGLVQAGGSLRQSCAASGYIFPYYSMGSYRQAPGKERGLVACIAAGTTTNYADSVKGRFTISRDNAKKSVYLQMNSLKPEDAAVYYCAALNAFNTGHWYWGQGTQVTVSS”, the “polyreactivity (PSR sort gate)” value is reported as “low polyreactivity”. With “QVQLQESGGGLVQAGGSLRQSYAASGYIFPSLAMGWYRQAPGKEREFVAAIGRGSTNNYADSVKGRFTISRDNAKKTAYQQMNSLKPEDTAVYYCAAAASPLTRHLYWGQGTQVTVSS” the “polyreactivity (PSR sort gate)” value was “low polyreactivity”. For “QVQLQESGGGLVQAGGSLSCAASGNIFYIKYMGWYRQEPGKEREFVASIAHGTSTYYADSVKGLFTISRDNAKNTVYLQMNSLKPVDTAVYYCAAVTQSYYSYYYWGQGTQVTVSS”, the “polyreactivity (PSR sort gate)” value was “low polyreactivity”. With “QVQLQESGGGLVQAGGSLSLSCAASGSNFVSVTMGWYRQAHGKERELVASIGRGSTTNHADSVKGRFTISRDNAKNIVYLLMNSLKPEDTAVYYCAALESYGKYHGYWGQGTQVTVSS” the “polyreactivity (PSR sort gate)” value was “low polyreactivity”. With “QVQLQESGGGLVQAGGSMRLSCAATGSISELRPMGWYSQAPGKERELVAGISTGGSTNYADSVKGRFTISRDNAKNTVFLQMNSLKPEDTAVYYCAAGSYGEGTYDYWGQGTQVTVRS” the “polyreactivity (PSR sort gate)” value was “high polyreactivity”. For “QVQLQESGGGLVQAGGSPRLSCAASDNIFPDSVMCWYRQAPGKERELVATIGFGATTNSADSVKGRFTISRDNAKNTVYLQMNSLKPEDTAVYSCAADPLNYEYFCYWGQGTQVTVSS”, the “polyreactivity (PSR sort gate)” value was “low polyreactivity”. With “QVQLQESGGGLVQAGGSPRLSCAASDNIFPDSVRCWYRQAPGKERELVATIGFGATTNYADSVKGRFTISRDNAKNTVYLQMNSLKPEDTAVYYCAADPLNYEYFCYWGQGTQVTVSS” the “polyreactivity (PSR sort gate)” value was “low polyreactivity”. In the case of “QVQLQESGGGLVQAGGSQRLSCAASGYIFYFQYMGWYRQAPGKELEFVAAISDGANTNYADSVKGRITISRDNAKNTEYLQMNSLKPEDTAVYYCAVYADENDYYIYWGQGTQVTVSS”, the “polyreactivity (PSR sort gate)” value is reported as “low polyreactivity”. For “QVQLQESGGGLVQAGGSQRLSCAASGYIIYFQYMGWYRQAPGKEREFVAAISDGANTNYADSVKGRFTISRDNAKNTEYLQMNSLKPEDTAVYYCAVYADENYYYIYWGQGTQVTVSS”, the “polyreactivity (PSR sort gate)” value was “low polyreactivity”. In the case of “QVQLQESGGGLVQASGSPRLSCAASGNIFDADIMGWYRQAPGKQCELVASITDGGSTNYADSEKGRFTISSDNAKNTVYLQKNSLKPEDTAVYYCAAISYRDIPTYFDYDSDYFYWGQGTHVTVSS”, the “polyreactivity (PSR sort gate)” value is reported as “high polyreactivity”. In the case of “QVQLQESGGGLVQVGGSLRLSCAASGTIFNYGFLGRNRQAPGKERELVASINLGGITNYADSVKGRFTISRDNAKNTVYLQMISLKPEDTAVYYCAAYVVTGQNYGYWGQGTQVTVSS”, the “polyreactivity (PSR sort gate)” value is reported as “low polyreactivity”. In the case of “QVQLQESGGGLVQVGGSQRLSCAASGNIFYNYAMVWYRNAQGKEREFDATIKNGTSINYADSVKGRFTISRDNAKNTVYLQMNSLTPEDTAVYYCAADLSWTDNLFYWGQGTQVTVSS”, the “polyreactivity (PSR sort gate)” value is reported as “low polyreactivity”. In the case of “QVQLQESGGGMVLAGGSLRLSCSASGTISVYGTMGWYRQAPGKEREFVATIDPGTHTNYADSVKDRFTISRDNAKNTVYLKMNSLKPEVTAVYSCAVEAGSDWPYRYWGQGTQVTVSS”, the “polyreactivity (PSR sort gate)” value is reported as “low polyreactivity”.
